# Reference: patent publication US20100310509A1 (published 2010)
# T1: soluble gp130 (R&D Systems # 228-GP-050/CF) (UniProt P40189 23-619, limits assumed)
# T1 construct: extracellular domain; Bought
# T1 sequence (looked up): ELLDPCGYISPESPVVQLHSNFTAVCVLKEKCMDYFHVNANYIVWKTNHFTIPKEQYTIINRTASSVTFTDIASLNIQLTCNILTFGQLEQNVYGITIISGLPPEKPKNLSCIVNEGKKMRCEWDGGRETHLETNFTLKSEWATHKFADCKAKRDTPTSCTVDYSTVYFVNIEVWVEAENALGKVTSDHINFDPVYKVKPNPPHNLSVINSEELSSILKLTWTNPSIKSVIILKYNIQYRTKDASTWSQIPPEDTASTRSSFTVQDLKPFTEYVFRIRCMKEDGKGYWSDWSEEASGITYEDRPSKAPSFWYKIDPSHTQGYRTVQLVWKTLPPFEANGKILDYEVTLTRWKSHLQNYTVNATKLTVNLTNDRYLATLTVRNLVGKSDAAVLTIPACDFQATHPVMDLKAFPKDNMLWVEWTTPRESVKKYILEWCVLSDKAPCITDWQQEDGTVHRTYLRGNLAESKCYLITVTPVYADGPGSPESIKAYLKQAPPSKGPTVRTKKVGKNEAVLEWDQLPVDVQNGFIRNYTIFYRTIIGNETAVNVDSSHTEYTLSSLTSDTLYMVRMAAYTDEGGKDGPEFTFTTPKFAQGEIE
# T2: soluble human OSMR (Oncostatin M receptor) (human, UniProt Q99650 28-740)
# T2 construct: extracellular domain; Bought; also called soluble OSMR
# T2 sequence (looked up): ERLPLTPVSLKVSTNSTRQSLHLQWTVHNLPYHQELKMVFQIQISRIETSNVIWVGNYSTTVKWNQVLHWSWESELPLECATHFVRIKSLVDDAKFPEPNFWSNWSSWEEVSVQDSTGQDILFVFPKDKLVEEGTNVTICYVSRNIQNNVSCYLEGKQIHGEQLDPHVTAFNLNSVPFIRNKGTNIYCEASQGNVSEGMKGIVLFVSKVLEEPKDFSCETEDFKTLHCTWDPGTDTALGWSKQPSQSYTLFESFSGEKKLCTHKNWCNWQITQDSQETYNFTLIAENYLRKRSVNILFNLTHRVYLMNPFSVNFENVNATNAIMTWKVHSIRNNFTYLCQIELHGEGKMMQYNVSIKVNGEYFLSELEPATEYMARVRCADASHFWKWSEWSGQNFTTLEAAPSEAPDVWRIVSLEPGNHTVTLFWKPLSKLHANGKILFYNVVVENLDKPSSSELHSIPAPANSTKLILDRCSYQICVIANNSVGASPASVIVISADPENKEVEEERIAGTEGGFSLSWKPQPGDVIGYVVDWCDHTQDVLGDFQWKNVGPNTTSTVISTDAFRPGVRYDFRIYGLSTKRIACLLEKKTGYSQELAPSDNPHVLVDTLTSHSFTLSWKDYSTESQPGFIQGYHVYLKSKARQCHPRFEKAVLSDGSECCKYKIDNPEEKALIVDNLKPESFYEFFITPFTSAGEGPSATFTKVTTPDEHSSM
# B1: OSM-M1 (OSM with BC loop truncated from 12 to 7 amino acids) (ligand)
# chain: AAIGSCSKEYRVLLGQLQKQTDLMQDTSRLLDPYIRIQGLDVPKLREHCRERPGAFPSEETLRGLGRRGFLQTLNATLGCVLHRLADLEQRLGAPSGLNIEDLEKLQMARPNILGLRNNIYCMAQLLDNSDTAEPTKAGAGASQPPTPTPASDAFQRKLEGCRFLHGYHRFMHSVGRVFSKWGESPN
# notes: Made from the 'AGA' modified OSM template; lacks the thrombin site; not shown: N-terminal FLAG tag left after thrombin removal of GST
# B2: OSM-M2 (OSM with BC loop truncated from 12 to 4 amino acids) (ligand)
# chain: AAIGSCSKEYRVLLGQLQKQTDLMQDTSRLLDPYIRIQGLDVPKLREHCRERPGAFPSEETLRGLGRRGFLQTLNATLGCVLHRLADLEQRLGGGNIEDLEKLQMARPNILGLRNNIYCMAQLLDNSDTAEPTKAGAGASQPPTPTPASDAFQRKLEGCRFLHGYHRFMHSVGRVFSKWGESPN
# notes: as for B1
# B3: human leukemia inhibitory factor (LIF) (ligand)
# chain: not shown
# notes: Purified recombinant protein; also called hLIF
# B4: OSM-WT ('AGA' modified human Oncostatin M, referred to as wild-type OSM) (ligand)
# chain: AAIGSCSKEYRVLLGQLQKQTDLMQDTSRLLDPYIRIQGLDVPKLREHCRERPGAFPSEETLRGLGRRGFLQTLNATLGCVLHRLADLEQRLPKAQDLERSGLNIEDLEKLQMARPNILGLRNNIYCMAQLLDNSDTAEPTKAGAGASQPPTPTPASDAFQRKLEGCRFLHGYHRFMHSVGRVFSKWGESPN
# notes: also called hOSM with AGA modification; not shown: N-terminal FLAG tag left after thrombin removal of GST
# Assays:
# [1] = target: T1, soluble gp130 (R&D Systems # …); assay: SPR (SensiQ), cytokine immobilised, soluble gp130 as analyte, 1:1 model
# Procedure: (§1) Surface Plasmon Resonance (SPR): Kinetic parameters of the interactions between receptor domains and the cytokines LIF, OSM-WT, OSM-M1 or OSM-M2 were analyzed by SPR using the SENSIQ® system (ICX Technologies, Oklahoma City, Okla.) as described by the manufacturer protocol. Briefly, a carboxyl sensor with two channels was installed in SENSIQ® and allowed to thermally equilibrate for about 15 minutes. The channels were initially cleaned with a 3 minute injection of 0.1 M HCl. An activation solution of 2 mM 1-Ethyl-3-[3-dimethylaminopropyl]carbodiimide hydrochloride (EDC) and 0.5 mM N-hydroxysulfo succinimide (NHS) was prepared in deionized water immediately before injection. Activation solution was injected over both channels for approximately 3 minutes followed by a 10 minute injection of 50 μg/mL cytokine (LIF, OSM-WT, OSM-M1 or OSM-M2) in 10 mM acetate buffer, pH 5.0, over channel 1. […] Unreacted NHS esters were capped with a 3 minute injection of 1 M ethanolamine, pH 8.0, over both channels. […] A concentration series of soluble LIFR (# 249-LR-050/CF, R&D Systems, Minneapolis, Minn.), soluble OSMR (# 4389-OR-50, R&D Systems, Minneapolis, Minn.) or soluble gp130 (# 228-GP-050/CF, R&D Systems, Minneapolis, Minn.) in running buffer (10 mM HEPES pH 7.4, 150 mM NaCl, 3.4 mM EDTA, 0.005% Tween-20) were injected over both channels at a flow rate of 25 μl/min. Following a dissociation period of 3 minutes, the surfaces were regenerated by injecting 10 mM NaOH for 30 seconds. Rate constants for association (kₐ) and dissociation (kd) rates were derived by global analysis of the response curves fit to a 1:1 kinetic model (Equations 1 and 2) using QDat software (BioLogic Software, Ltd. Knoxville Tenn. and Nomadics, Inc. Stillwater, Okla.) using 1:1 stoichiometry.
# Reducing the size of the BC loop improves OSM's affinity towards LIFR and OSMR. […] To directly measure the binding kinetics of these ligand-receptor interactions, surface plasmon resonance (SPR) was used.
# [2] = target: T2, soluble human OSMR (Oncostatin M …); assay: SPR (SensiQ), OSM-M1 immobilised, soluble OSMR injected (150nM, 100nM, 50nM, 25nM, 10nM, 5nM)
# Procedure: as §1, with “Following a dissociation period of 3 minutes, the surfaces were regenerated by injecting 10 mM NaOH for 30 seconds. Rate constants for association (kₐ) and dissociation (kd) rates were derived by global analysis of the response curves fit to a 1:1 kinetic model (Equations 1 and 2) using QDat software (BioLogic Software, Ltd. Knoxville Tenn. and Nomadics, Inc. Stillwater, Okla.) using 1:1 stoichiometry.” left out
# [3] = target: OSMR:gp130 receptor complex on A375 melanoma cells (UniProt Q99650 28-979; P40189 23-918, limits assumed); assay: cell-based or functional assay
# [4] = target: LIFR:gp130 receptor complex on human retinal Müller cells (human, UniProt P42702 45-1097; P40189 23-918); assay: cell-based or functional assay
# [5] = target: T2, soluble human OSMR (Oncostatin M …); assay: SPR (SensiQ), OSM-M2 immobilised, soluble OSMR injected (150nM, 100nM, 50nM, 25nM, 10nM, 5nM)
# Procedure: as §1, with “Following a dissociation period of 3 minutes, the surfaces were regenerated by injecting 10 mM NaOH for 30 seconds. Rate constants for association (kₐ) and dissociation (kd) rates were derived by global analysis of the response curves fit to a 1:1 kinetic model (Equations 1 and 2) using QDat software (BioLogic Software, Ltd. Knoxville Tenn. and Nomadics, Inc. Stillwater, Okla.) using 1:1 stoichiometry.” left out
# [6] = target: T2, soluble human OSMR (Oncostatin M …); assay: SPR (SensiQ), LIF immobilised, soluble OSMR injected (150nM, 100nM, 50nM, 25nM, 10nM, 5nM)
# Procedure: as §1, with “Following a dissociation period of 3 minutes, the surfaces were regenerated by injecting 10 mM NaOH for 30 seconds. Rate constants for association (kₐ) and dissociation (kd) rates were derived by global analysis of the response curves fit to a 1:1 kinetic model (Equations 1 and 2) using QDat software (BioLogic Software, Ltd. Knoxville Tenn. and Nomadics, Inc. Stillwater, Okla.) using 1:1 stoichiometry.” left out
# LIFR:gp130 receptor complex on human retinal Müller cells, sequence (P42702 45-1097, one chain of several): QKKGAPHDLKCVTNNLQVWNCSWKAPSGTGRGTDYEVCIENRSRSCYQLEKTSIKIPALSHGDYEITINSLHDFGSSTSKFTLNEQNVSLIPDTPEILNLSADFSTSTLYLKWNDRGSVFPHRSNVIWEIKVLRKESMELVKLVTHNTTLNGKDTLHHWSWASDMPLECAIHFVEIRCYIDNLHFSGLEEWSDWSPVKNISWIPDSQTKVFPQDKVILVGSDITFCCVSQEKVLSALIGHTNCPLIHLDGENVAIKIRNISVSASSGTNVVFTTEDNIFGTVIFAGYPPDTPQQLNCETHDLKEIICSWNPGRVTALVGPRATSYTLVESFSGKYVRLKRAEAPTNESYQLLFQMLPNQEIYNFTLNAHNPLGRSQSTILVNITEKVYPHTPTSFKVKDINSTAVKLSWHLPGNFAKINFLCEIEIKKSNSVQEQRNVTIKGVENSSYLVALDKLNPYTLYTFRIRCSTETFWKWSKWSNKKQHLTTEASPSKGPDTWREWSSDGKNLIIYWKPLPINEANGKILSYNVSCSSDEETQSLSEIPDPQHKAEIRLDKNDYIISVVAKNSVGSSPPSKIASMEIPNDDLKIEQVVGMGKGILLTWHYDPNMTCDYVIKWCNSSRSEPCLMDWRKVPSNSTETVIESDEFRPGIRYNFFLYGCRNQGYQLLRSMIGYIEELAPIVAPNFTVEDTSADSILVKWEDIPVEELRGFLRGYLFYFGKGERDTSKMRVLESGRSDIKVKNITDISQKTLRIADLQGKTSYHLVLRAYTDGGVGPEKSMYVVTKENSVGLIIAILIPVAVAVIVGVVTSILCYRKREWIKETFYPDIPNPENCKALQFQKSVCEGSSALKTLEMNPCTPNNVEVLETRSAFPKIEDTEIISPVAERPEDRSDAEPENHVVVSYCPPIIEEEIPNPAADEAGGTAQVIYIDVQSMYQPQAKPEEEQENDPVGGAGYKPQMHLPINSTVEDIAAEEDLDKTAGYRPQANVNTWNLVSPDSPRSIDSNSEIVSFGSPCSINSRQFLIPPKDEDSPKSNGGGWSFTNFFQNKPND
Kd [1],koff [1],kon [1],binding result [2],"concentration needed for receptor activation, against native OSM [3]","concentration needed for receptor activation, against native OSM [4]",binding result [5],binding result [6],Binder
26.3 nM,0.00534 s⁻¹,203000 M⁻¹ s⁻¹,no binding (tested: 150 nM),3 fold lower concentration,3 fold lower concentration,–,–,B1
21.5 nM,0.00487 s⁻¹,227000 M⁻¹ s⁻¹,–,3 fold lower concentration,3 fold lower concentration,no binding (tested: 150 nM),–,B2
72.4 nM,0.00533 s⁻¹,74000 M⁻¹ s⁻¹,–,–,–,–,no binding (tested: 150 nM),B3
22.7 nM,0.0047 s⁻¹,207000 M⁻¹ s⁻¹,–,–,–,–,–,B4
